Data set [1] addresses T1, G. intestinalis thymidine kinase (TK) (Giardia duodenalis, UniProt A8BRU1).
T1 construct: gene GL50803_008364; full length, 392 residues, 42 kDa, monomer (mass photometry); expressed in E. coli BL21(DE3)pLysS from pET-Z as His6-Z fusion, tag removed with TEV protease; two TK1-like domains (1-210 active, 211-392 degenerate)
T1 sequence (A8BRU1 1-392): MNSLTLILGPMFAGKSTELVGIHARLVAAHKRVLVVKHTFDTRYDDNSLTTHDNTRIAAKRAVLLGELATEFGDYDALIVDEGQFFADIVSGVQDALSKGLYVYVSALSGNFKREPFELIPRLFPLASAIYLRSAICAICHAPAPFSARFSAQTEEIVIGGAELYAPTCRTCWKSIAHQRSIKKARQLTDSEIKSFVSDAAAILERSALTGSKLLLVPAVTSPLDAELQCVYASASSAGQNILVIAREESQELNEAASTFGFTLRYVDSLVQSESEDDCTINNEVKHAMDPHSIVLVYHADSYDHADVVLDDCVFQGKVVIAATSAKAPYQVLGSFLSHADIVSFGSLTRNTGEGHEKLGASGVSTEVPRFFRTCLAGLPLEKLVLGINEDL
In words: thymidine kinase assay (phosphorylation of the nucleoside). As to conditions: 2 mM ATP, 5 mM MgCl2, 0.5 mM DTT, 100 mM potassium acetate, 50 mM Tris-HCl pH 7.5, 37 °C. It is filed as biochemical. From the text:
(§1) thymidine kinase assay (phosphorylation of the nucleoside) on G. intestinalis thymidine kinase (TK)

For data set [2], the target named is T1, G. intestinalis thymidine kinase (TK). In words: radiometric [[…]'-3H]thymidine phosphorylation, DE81 / Hybond-XL filter assay. It is filed as biochemical.
Substrate in data set [3]: Cc1cn([C@H]2C=C[C@@H](CO)O2)c(=O)[nH]c1=O
The data set is described as follows: thymidine kinase assay (phosphorylation of the nucleoside). The note with it: 2 mM ATP, 5 mM MgCl2, 0.5 mM DTT, 100 mM potassium acetate, 50 mM Tris-HCl pH 7.5, 37 °C. The format is biochemical, Giardia duodenalis.
Text: as §1

Substrate in data set [4]: Cc1cn([C@@H]2O[C@H](CO)[C@@H](O)[C@@H]2O)c(=O)[nH]c1=O
The data set is described as above. The note with it: 2 mM ATP, 5 mM MgCl2, 0.5 mM DTT, 100 mM potassium acetate, 50 mM Tris-HCl pH 7.5, 37 °C. It is filed as biochemical, Giardia duodenalis.
Text: as §1

Substrate in data set [5]: O=c1ccn([C@H]2C[C@H](O)[C@@H](CO)O2)c(=O)[nH]1
The description is as above. The format is biochemical, Giardia duodenalis. As to conditions: 2 mM ATP, 5 mM MgCl2, 0.5 mM DTT, 100 mM potassium acetate, 50 mM Tris-HCl pH 7.5, 37 °C.
Text: as §1

Substrate in data set [6]: O=c1ccn([C@@H]2O[C@H](COP(=O)(O)OP(=O)(O)OP(=O)(O)O)[C@@H](O)[C@H]2O)c(=O)[nH]1
In words: purified protein. It is filed as biochemical, Giardia duodenalis. As to conditions: phosphate donor varied, 1 μM thymidine, 10 mM MgCl2, pH 7.5, 37 °C.

Substrate in data set [7]: Nc1ncnc2c1ncn2[C@@H]1O[C@H](COP(=O)(O)OP(=O)(O)OP(=O)(O)O)[C@@H](O)[C@H]1O
In words: purified protein. The note with it: phosphate donor varied, 1 μM thymidine, 10 mM MgCl2, pH 7.5, 37 °C. It is filed as biochemical, Giardia duodenalis.

Substrate in data set [8]: Nc1nc2c(ncn2[C@@H]2O[C@H](COP(=O)(O)OP(=O)(O)OP(=O)(O)O)[C@@H](O)[C@H]2O)c(=O)[nH]1
The data set is described as follows: purified protein. It is filed as biochemical, Giardia duodenalis. As to conditions: phosphate donor varied, 1 μM thymidine, 10 mM MgCl2, pH 7.5, 37 °C.

Substrate in data set [9]: Nc1ccn([C@@H]2O[C@H](COP(=O)(O)OP(=O)(O)OP(=O)(O)O)[C@@H](O)[C@H]2O)c(=O)n1
In words: purified protein. It is filed as biochemical, Giardia duodenalis. The note with it: phosphate donor varied, 1 μM thymidine, 10 mM MgCl2, pH 7.5, 37 °C.

What is called IC50 is the midpoint of a concentration-inhibition curve. A lower IC50 goes with higher potency. A word on the Km: it is the concentration of substrate that gives half-maximal velocity. The Vmax is the rate approached at saturating substrate. As a reminder, the kcat is the maximal rate divided by the concentration of active sites. As a reminder, the kcat/Km is the second-order rate constant that governs catalysis at low substrate concentration.

Take `Cc1cn([C@H]2C[C@H](N=[N+]=[N-])[C@@H](CO)O2)c(=O)[nH]c1=O` [AZT]: the “Km (μM)” value in data set [1] is reported as 0.044 ± 0.002 (12%) μM.

In the case of `Cc1cn([C@H]2C[C@H](O)[C@@H](COP(=O)(O)OP(=O)(O)OP(=O)(O)O)O2)c(=O)[nH]c1=O` [dTTP], in [2], 30 ± 3 µM corresponded to half-maximal inhibition (IC50).

B1: G. intestinalis thymidine kinase (TK) (Giardia lamblia ATCC 50803) (protein)
chain: MNSLTLILGPMFAGKSTELVGIHARLVAAHKRVLVVKHTFDTRYDDNSLTTHDNTRIAAKRAVLLGELATEFGDYDALIVDEGQFFADIVSGVQDALSKGLYVYVSALSGNFKREPFELIPRLFPLASAIYLRSAICAICHAPAPFSARFSAQTEEIVIGGAELYAPTCRTCWKSIAHQRSIKKARQLTDSEIKSFVSDAAAILERSALTGSKLLLVPAVTSPLDAELQCVYASASSAGQNILVIAREESQELNEAASTFGFTLRYVDSLVQSESEDDCTINNEVKHAMDPHSIVLVYHADSYDHADVVLDDCVFQGKVVIAATSAKAPYQVLGSFLSHADIVSFGSLTRNTGEGHEKLGASGVSTEVPRFFRTCLAGLPLEKLVLGINEDL
notes: full length, 392 residues, 42 kDa, monomer (mass photometry); expressed in E. coli BL21(DE3)pLysS from pET-Z as His6-Z fusion, tag removed with TEV protease; two TK1-like domains (1-210 active, 211-392 degenerate)
Regarding B1, the Km came out at 39 ± 13 µM in data set [3]; 425 ± 47 µM in data set [4]; 5.3 ± 1.3 µM in data set [5]; 1927 ± 269 µM in [6]; 467 ± 29 µM in [7]; 1303 ± 78 µM in data set [8]. Further, the Km in [9] came to 2396 ± 199 µM. Besides, the maximal velocity (Vmax) came to 0.25 µmol/min in data set [3]; 0.68 µmol/min in [4]; 1.02 µmol/min in data set [5]; 1.66 µmol/min in data set [6]; 0.93 µmol/min in data set [7]; 2.41 µmol/min in [8]. Also, the Vmax in data set [9] was determined as 1.7 µmol/min. Further, the kcat in [3] was found to be 0.17 s⁻¹; in [4], 0.48 s⁻¹; in data set [5] it was 0.67 s⁻¹; in data set [6], 1.16 s⁻¹; in [7], 0.65 s⁻¹; in data set [8], 1.69 s⁻¹. For the same molecule, the kcat in data set [9] was 1.19 s⁻¹. Also, the kcat/Km amounted to 4500 M⁻¹ s⁻¹ in [3]; 1100 M⁻¹ s⁻¹ in data set [4]; 134000 M⁻¹ s⁻¹ in [5]; 600 M⁻¹ s⁻¹ in [6]; 1400 M⁻¹ s⁻¹ in data set [7]; 1300 M⁻¹ s⁻¹ in data set [8]. Also, the catalytic efficiency (kcat/Km) in [9] stood at 500 M⁻¹ s⁻¹.
